Test results published in the supplement of paper PMC9170038.

The sequences below were run on MS2 coat protein (assay: apparent KD of MS2 coat protein, switch ON state; designed switch direction (-1 OFF switch, 1 ON switch): 1; higher = weaker reporter binding). Details: FMN input: 0 or 200 uM; Eterna round: R93 (includes R88 designs).
How it was run: (§1)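 Apparent KD per design is the median of normalised cluster binding-curve fits. Designed RNA switches transcribed on-chip from Illumina sequencing clusters were titrated with SNAP-549-labelled MS2 coat protein in twofold steps from 0.7 or 1.5 nM to 3 µM, with 0.8–1.5 h down to 10–20 min per step. Buffer: 100 mM Tris-HCl pH 7.5, 80 mM KCl, 4 mM MgCl2, without or with constant ligand.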

In the case of “AACAAUCUAUCUGAGGAUAUGUGUCGAAAGACAUGAGGAUCACCCAUGUGAAAACAUGGAAAAACACAGAAGGCAGAUAGAUUGA [SS2: 1150]”, the “apparent KD of MS2 coat protein” value is reported as 147 nM.

These sequences were tested on MS2 coat protein (assay: apparent KD of MS2 coat protein, switch OFF state (with FMN for OFF switches, without FMN for ON switches); designed switch direction (-1 OFF switch, 1 ON switch): 1; higher = weaker reporter binding). Details: FMN input: 0 or 200 uM; Eterna round: R93 (includes R88 designs).
How it was run: as §1

“GACAAACAUGAGGAUCACCCAUGUAGAAAUAUGGGAGGAUAUACACAGACGAAAGUCAAAGUAGAAGGCCUACAAG [77%, Mat - Mod of Eli - With 3 more C's]” and “AUAAGACAUGAGGAUCACCCAUGUAUAAGAGCAUGAGGAUAUAUGAAAAGUAAUAGGAGGAUAGAAGGCAUGGUUG [JR_SS001_Sub1219]” are within 1.5-fold of each other in “apparent KD of MS2 coat protein” value: 103 nM for the first, 102 nM for the second.

First: AGAAAACAUGAGGAUCACCCAUGUAGAAAUAUGGGAGGAUAUACAAAGACGAAAGUCAAAGUAGAAGGCCUGAAGA [Mat - Same State 1 - JL mod - D92]
Second: CAGCGCUGUCGAGAGGAUAUGCGGUGAAGGACAUGAGGAUCACCCAUGUAAGCGAUAGUAUUACGGUAGAAGGCUCUACAGCUGC [Isdianbia]
The “apparent KD of MS2 coat protein” value of the first is 1.5-fold lower: 75 nM for the first, 114 nM for the second.

First: AAAAAACAUGAGGAUCACCCAUGUAGAAACAUGGGAGGAUAUACAAAGACGAAAGUCAAAGUAGAAGGCCUAAAAG [Mat - Same State 1 - Mod - D158]
Second: AAAAAACAUGAGGAUCACCCAUGUGCAAAAUUCGCAGGAUAUUCCUCAAUUAAAUGAGAGGAAGAAGGGUGAAAAA [Nob's Hobby 26 - Jieux - Same State 1]
The “apparent KD of MS2 coat protein” value of the first is 2.5-fold lower: 69.2 nM for the first, 171 nM for the second.

Compared with “GAAAAACAUGAGGAUCACCCAUGUAGAAAUAUGGGAGGAUAUACAAAGACGAAAGUCAAAGUAGAAGGCUCAAAAG [Starry Same State 1.2 (mat747 round 1 mod)]”, “AAAUUACAUGAGGAUCACCCAUGUAACGACGUUACAGGAUAUGUGGGUGAAAAUAGCAUGACAGAAGGGUACCGUA [SameState1 Malc#38]” is 5.8-fold lower in “apparent KD of MS2 coat protein” value: 164 nM for the first, 28.4 nM for the second.

First: AGAAGACAUGAGGAUCACCCAUGUAGGAAUAUGGGAGGAUAUACAAAGACGAAAGUCAGAGUAGAAGGCCUAGGAA [salish99-SS1-090]
Second: AAAAGACAUGAGGAUCACCCAUGUCUUCGGACAUGAGGAUAUGUACAGACUUCGGUCUGUACAGAAGGCAUAAAAA [SS1 - 1062]
The “apparent KD of MS2 coat protein” value of the first is 1.6-fold lower: 53 nM for the first, 82.2 nM for the second.

Compared with “GCAGGGCCGUACUAGGAUAUGGGUGUAAAGACAUGAGGAUCACCCAUGUGAUGGCAAAACAAAGCUCAGAAGGAGUCGCGGCCCA [Cemavebi]”, “AAAAGACAUGAGGAUCACCCAUGUAAAGACAUAGGAGGAUAUGUCAUGAAAAAAGACUUGACAGAAGGCCUUUGUC [SS1 - 50]” is 6.3-fold lower in “apparent KD of MS2 coat protein” value: 129 nM for the first, 20.4 nM for the second.

First: AAUAUACAUGAGGAUCACCCAUGUUUUAAUAACUCAGGAUAUACAGGUGAAAACAGCAUAGUAGAAGGGAGAAAAA [SameState1 Malc#3]
Second: GAUGACAUAGUACAGGAUAUAUGAAUAGUCACAUGAGGAUCACCCAUGUGCAUUUAUAUGCGCACAUAGAAGGGUGGUAGUGAUC [Mat - Same state - Malcolm Mod - D126]
The “apparent KD of MS2 coat protein” value of the first is 2.1-fold lower: 23.2 nM for the first, 49.8 nM for the second.

First: GGAGCCGGCACUGAGGAUAUUCAUAUUAAAACAUGAGGAUCACCCAUGUAGGCCAGAAGGCCUUGGGAGAAGGCAGGUCGGCUCG [Arinin]
Second: AAAAAACAUGAGGAUCACCCAUGUGGGAAUAUGGAAGGAUAUACAAAGACGAAAGUCAAAGUAGAAGGUCUAAAAG [76%, Meechl 2]
The “apparent KD of MS2 coat protein” value of the first is 8.7-fold higher: 363 nM for the first, 41.9 nM for the second.

Going from “AAAAAAAAGGGUGAGGAUAUAGAAAAAAAAACAUGAGGAUCACCCAUGUGAAAAAAAAAAAAAAGCUAGAAGGCACAAAAAAAAAA [Same State 2]” to “AAUUCCACUAGCAAGGAUAUCUAAAACGAAACAUGAGGAUCACCCAUGUGACGACCACACGUAUCAGAGAAGGUGCAGGGUGAAU [JR_SS002_Sub307]”, the “apparent KD of MS2 coat protein” value falls from 159 nM to 31.9 nM (5-fold).

“UGCAGGAAGAGAGAGGAUAUCCAAAGGAAAACAUGAGGAUCACCCAUGUAAAAGGUAGGAAAUUGGGAGAAGGCUCAAGAGAGAG [salish99-ss2-098]” and “AAAUAAAGGACUGAGGAUAUACCACAUGAAACAUGAGGAUCACCCAUGUAGAAAUACAAGCGGUGGUAGAAGGCAGUCCACAAAC [Same State 2.5i ( so lets mod hyphema)]” are within 1.5-fold of each other in “apparent KD of MS2 coat protein” value: 28.3 nM for the first, 20.4 nM for the second.

“AAGAAACAUGAGGAUCACCCAUGUAAGAUAAACACAGGAUAUGCGAAAAUAAACAAAUAAGCAGAAGGGUGAAGAA [Mat - Same State 1 - Tesla mod - 65]” and “AAUAAAAAUAGUUAGGAUAUGAGAACUAGGACAUGAGGAUCACCCAUGUAACUAGAACAAGUAAAUCAGAAGGGACAGGGUGAAA [JR_SS002_Sub203]” are within 1.5-fold of each other in “apparent KD of MS2 coat protein” value: 28.1 nM for the first, 19 nM for the second.

Going from “GAGAGACAUGAGGAUCACCCAUGUAGGAUUAUGGGAGGAUAUACAAAGACGAGAGUCAGAGUAGAAGGCCUAGGAG [salish99-ss1-139]” to “AAAAGACAUGAGGAUCACCCAUGUAAAAACGUAGGAGGAUAUGUAUGGAAACCAGACUGUACAGAAGGCCUUUGUC [SS1 - 73]”, the “apparent KD of MS2 coat protein” value falls from 75.6 nM to 19.4 nM (3.9-fold).

First: AGAUCUAGAAGGUAGGAUAUGUGAAAAAAUACAUGAGGAUCACCCAUGUGAUGAAUAAAAAGAAAAUAGAAGGACCAUCUAGAUC [Cross swing 2]
Second: AUGUAUAGCCUCGAGGAUAUCCUGUCAUGCACAUGAGGAUCACCCAUGUAAGAGAGAGUUUAAUGGGAGAAGGCGAGUUCUCGGU [JR_SS002_Sub1706]
The “apparent KD of MS2 coat protein” value of the first is 1.6-fold lower: 40.7 nM for the first, 66.6 nM for the second.

Going from “CCCAUACAUGAGGAUCACCCAUGUUUUAUUAACAGAGGAUAUAUAGGUGAAACAAACAACAUAGAAGGCUGCCCAA [Default title]” to “GUAGACAUAGUUCAGGAUAUAUGAAUAGUCACAUGAGGAUCACCCAUGUCCAUUUAUAUGGGCACAUAGAAGGGAGGUAGUUAAC [Mat - Same state - Malcolm Mod - D123]”, the “apparent KD of MS2 coat protein” value rises from 53.2 nM to 1140 nM (21-fold).

First: AUAUAUAUAAGGUAGGAUAUCCAAAAGUAAACAUGAGGAUCACCCAUGUAAAGAAAGAAACAAUGGGAGAAGGACCAUAUAUAUA [77%, More Tesla, 3]
Second: AAGAAACAUGAGGAUCACCCAUGUAAGAUAAACACAGGAUAUGCAAAAGAAAGAAAGAAAGCAGAAGGGUGAAGAA [Mat - Same State 1 - Tesla mod - 50]
The “apparent KD of MS2 coat protein” value of the first is 1.8-fold lower: 24 nM for the first, 42.3 nM for the second.

Going from “AAAGAAUGAAGGCAGGAUAUGUGAAAAAAAACAUGAGGAUCACCCAUGUAAUAAAUGGGUACAAAACAGAAGGGCCAAGAAAUAA [SS 2 Tesla 2]” to “AAAACACAUGAGGAUCACCCAUGUAAAAACAUGGGAGGAUAUGCUUGGAAAACAUGCUAUGCAGAAGGCUCAAGUG [SS1 - 12]”, the “apparent KD of MS2 coat protein” value falls from 398 nM to 46.4 nM (8.6-fold).

Compared with “AUAAAACAUGAGGAUCACCCAUGUCAAGAGUAUUAAGGAUAUGAGCCAGGGAACUGGCGAUCAGAAGGUGAGACUC [Atxerexebe]”, “GAAAAACAUGAGGAUCACCCAUGUGAAAAUAUGGGAGGAUAUACGAAGUCGAAAGUCAAAGUAGAAGGCCUAAAAG [Garnet 32]” is 3.3-fold higher in “apparent KD of MS2 coat protein” value: 46.7 nM for the first, 155 nM for the second.

“GGAAAUAAAAGAGAGGAUAUCCAAAGGAAAACAUGAGGAUCACCCAUGUAAAAGGAAGGAAACUGGGAGAAGGCUCAAAAUAAGG [salish99-ss2-010]” and “AUAAUAAAAACACAGGAUAUCCAAAAGAAAACAUGAGGAUCACCCAUGUAAAGAAAAUAAAAAUGGGAGAAGGGUGAAAUAAAUA [Mat - Same State 2 - JL mod - D34]” are within 1.5-fold of each other in “apparent KD of MS2 coat protein” value: 32.2 nM for the first, 42.9 nM for the second.

“UGGAGACAUGAGGAUCACCCAUGUGAGAAGAGGCGAGGAUAUCGAAAGAAAGAAGAGAAACGAGAAGGCGCGAGCC [salish99-SS1-048]” and “AAAAGACAUGAGGAUCACCCAUGUGAAAACGUGCGAGGAUAUGUGUGGAAACCGUACUAUACAGAAGGCGCGUGUC [SS1 - 84]” are within 1.5-fold of each other in “apparent KD of MS2 coat protein” value: 49.9 nM for the first, 33.9 nM for the second.

Going from “AUAAGAAAAACACAGGAUAUCCAAAAGAAAACAUGAGGAUCACCCAUGUAAAGAAAAUAAAAAUGGGAGAAGGGUGAAAAUAAUA [Mat - Same State 2 - JL mod - D32]” to “AACAAUCUAUCUGAGGAUAUGUGUCGAAAGACAUGAGGAUCACCCAUGUGAAAACAUGGAAAAACACAGAAGGCAGAUAGAUUGA [SS2: 1150]”, the “apparent KD of MS2 coat protein” value rises from 62.2 nM to 202 nM (3.2-fold).
